Data as given in publication PMC8599861, “Structures of prokaryotic ubiquitin-like protein Pup in complex with depupylase Dop reveal the mechanism of catalytic phosphate formation” (Nature Communications, 2021).

Molecular target: Prokaryotic ubiquitin-like protein Pup from Corynebacterium glutamicum with C-terminal glutamate (Corynebacterium glutamicum) (UniProt Q8NQE0)
Test: ITC; 25 °C, MicroCal iTC200; 150 µM CgluDop or 200 µM CgluDopGS injected into 15 or 20 µM CgluPupE in the cell; 50 mM Tris-HCl pH 8.0, 300 mM NaCl, 20 mM MgCl2; 1:1 binding model

Chain of Prokaryotic ubiquitin-like protein Pup from Corynebacterium glutamicum with C-terminal glutamate (Corynebacterium glutamicum) (Q8NQE0 whole entry): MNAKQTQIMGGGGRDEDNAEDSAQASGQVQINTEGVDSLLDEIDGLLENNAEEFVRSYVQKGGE

- fold tighter affinity than the wild type enzyme: 2.5 fold
Substance: CgluDopGS, Dop-loop variant of Dop from Corynebacterium glutamicum (Dop-loop H43-I77 replaced with (GS)4) (enzyme)
